Paper PMC7517352 (Frontiers in Microbiology, 2020)

Target: T1, VapC21 toxin (Rv2757c) of the VapBC21 complex co-expressed from pET-Duet (M. tuberculosis, UniProt P9WF91 1-138)
T1 construct: also called VapC21 (in VapBC21 complex); not shown: His6, N-terminal, kept
T1 sequence: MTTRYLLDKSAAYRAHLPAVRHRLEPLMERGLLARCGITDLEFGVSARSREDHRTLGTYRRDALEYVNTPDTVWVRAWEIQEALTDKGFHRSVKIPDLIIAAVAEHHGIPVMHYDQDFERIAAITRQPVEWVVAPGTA
Assay: SEC-MALS
Details: both partners purified

B1: VapB21 antitoxin (Rv2758c) of the VapBC21 complex co-expressed from pET-Duet (natural protein)
chain: MHRGYALVVCSPGVTRTMIDIDDDLLARAAKELGTTTKKDTVHAALRAALRASAARSLMNRMAENATGTQDEALVNAMWRDGHPENTA
notes: also called VapB21 (in VapBC21 complex)
  stoichiometry N: 1 antitoxin per toxin (4:4)
